Source: paper PMC10016340

What was measured:
[1] = target: Ubiquitin carboxyl-terminal hydrolase isozyme L1 (UCH-L1) (human) (UniProt P09936); test: SPR
Cofilin-1 (human) = Cofilin-1 (human) (UniProt P23528); test: SPR
Chain of Cofilin-1 (human) (P23528 whole entry): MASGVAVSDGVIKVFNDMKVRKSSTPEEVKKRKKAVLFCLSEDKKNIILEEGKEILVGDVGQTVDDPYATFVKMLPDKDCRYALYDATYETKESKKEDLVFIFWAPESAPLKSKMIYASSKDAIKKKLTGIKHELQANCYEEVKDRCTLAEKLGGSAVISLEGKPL

Chain of Ubiquitin carboxyl-terminal hydrolase isozyme L1 (UCH-L1) (human) (P09936 whole entry): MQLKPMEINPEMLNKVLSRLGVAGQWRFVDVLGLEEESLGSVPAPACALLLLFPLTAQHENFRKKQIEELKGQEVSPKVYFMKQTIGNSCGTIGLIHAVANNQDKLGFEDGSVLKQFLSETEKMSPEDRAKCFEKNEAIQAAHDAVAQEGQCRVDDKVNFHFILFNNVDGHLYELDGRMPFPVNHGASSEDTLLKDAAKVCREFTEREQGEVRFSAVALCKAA

## α-synuclein oligomers (αSOs) (from UniProt P37840 1-140) (complex)
[1]
  Kd: 600 nM
Cofilin-1 (human)
  Kd: 290 nM
